Experimental data published in publication PMC10001486, “Artificial Intelligence-Based Computational Screening and Functional Assays Identify Candidate Small Molecule Antagonists of PTPmu-Dependent Adhesion” (International Journal of Molecular Sciences, 2023).

Molecular target: the molecule itself
Assay: bead aggregation assay; streptavidin MonoMag beads (1 micron) coated with biotin-tagged PTPµ21-365avi; PBS + 0.01% Tween 20; room temperature; rotation at 150 rpm for 30 min; aggregates over 50 µm^2 counted by microscopy

B1: PTPµ21-365avi (fragment of PTPµ containing the MAM, Ig, and first FNIII repeat) (domain or fragment, human, UniProt P28827 21-365, looked up)
chain: ETFSGGCLFDEPYSTCGYSQSEGDDFNWEQVNTLTKPTSDPWMPSGSFMLVNASGRPEGQRAHLLLPQLKENDTHCIDFHYFVSSKSNSPPGLLNVYVKVNNGPLGNPIWNISGDPTRTWNRAELAISTFWPNFYQVIFEVITSGHQGYLAIDEVKVLGHPCTRTPHFLRIQNVEVNAGQFATFQCSAIGRTVAGDRLWLQGIDVRDAPLKEIKVTSSRRFIASFNVVNTTKRDAGKYRCMIRTEGGVGISNYAELVVKEPPVPIAPPQLASVGATYLWIQLNANSINGDGPIVAREVEYCTASGSWNDRQPVDSTSYKIGHLDPDTEYEISVLLTRPGEGGTGS
modifications: biotin (biotin-tagged)
notes: PTPµ, aa 21-365: MAM domain, Ig domain and first FNIII repeat; held on streptavidin beads by the biotin on the avi tag; the species is stated only for the full-length protein and by the UniProt entry; also called extracellular fragment of PTPmu; source: bacterially expressed
**Q.** Does B1 bind?
**A.** binds
